Reference: PMC6980832, “Crystal structures of Triosephosphate Isomerases from Taenia solium and Schistosoma mansoni provide insights for vaccine rationale and drug design against helminth parasites” (PLoS Neglected Tropical Diseases, 2020)

What was measured:
[1] = substrate: O=CC(O)COP(=O)(O)O; experiment: purified protein; format: biochemical, Taenia solium; details: 0.1 M TEA-HCl pH 7.4, 10 mM EDTA, 0.2 mM NADH, 21 °C, G3P 0 to 5 mM, G3P to DHAP direction
[2] = substrate: O=CC(O)COP(=O)(O)O; experiment: purified protein; format: biochemical, Schistosoma mansoni; details: 0.1 M TEA-HCl pH 7.4, 10 mM EDTA, 0.2 mM NADH, 21 °C, G3P 0 to 5 mM, G3P to DHAP direction

Protein | Km [1] | kcat [1] | kcat/Km [1] | Km [2] | kcat [2] | kcat/Km [2]
TsTPI (Taenia solium) (protein, full length, codon-optimised synthetic gene, E. coli tpi-null strain, modified pET19; extra Gly-Pro-His before Met1; homodimer) MTRKLFVGGNWKMNGSYSHINTFFDTLQKADTDPNADIVIGVPACYLKYAQDKAPKGIKIAAENCYKVGSGAFTGEISTEMIKDCGCEWVILGHSERRHIFGESNELIGEKVKHALDSGLNVIPCIGELLSEREAGKTNDVCFAQMDAIAKNVPSKEAWDKVVIAYEPVWAIGTGKTATPAQAQEVHKVVRDWIRKHVDAGIADKVRILYGGSVTASNAKDLGTQPDVDGFLVGGASLKPDFITIINARR | 310 ± 30 µM | 993 ± 44 s⁻¹ | 3.15e+06 M⁻¹ s⁻¹ | – | – | –
SmTPI (Schistosoma mansoni) (protein, full length, codon-optimised synthetic gene, E. coli tpi-null strain, modified pET19; extra Gly-Pro-His before Met1; homodimer about 50 kDa) MSGSRKFFVGGNWKMNGSRDDNDKLLKLLSEAHFDDNTEVLIAPPSVFLHEIRKSLKKEIHVAAQNCYKVSKGAFTGEISPAMIRDIGCDWVILGHSERRNIFGESDELIAEKVQHALAEGLSVIACIGETLSERESNKTEEVCVRQLKAIANKIKSADEWKRVVVAYEPVWAIGTGKVATPQQAQEVHNFLRKWFKTNAPNGVDEKIRIIYGGSVTAANCKELAQQHDVDGFLVGGASLKPEFTEICKARQR | – | – | – | 480 ± 70 µM | 2870 ± 138 s⁻¹ | 5.8e+06 M⁻¹ s⁻¹
